Data: US20190255310A1, “KIT FOR IN SITU DELIVERY OF A COMPOUND OF INTEREST” (Defymed, priority 2016, published 2019)

Test system: diabetic rats
Test: Insulin delivery through catheter and implanted pocket in diabetic rats, plasmatic glycaemia
Format: in vivo, rat
Description: Rapid Insulin was injected through a catheter linked to a pocket as disclosed in the examples of WO 2015/086550 (three layer, including one of non-woven polymer).
The pocket was implanted in the intraperitoneal cavity of rats.

insulin
diffusion of insulin out of the device (inferred from glycaemia kinetics, pocket implanted intraperitoneally): instant diffusion
plasmatic glycaemia (insulin injected through catheter linked to pocket implanted in the intraperitoneal cavity (FIG. 2, circles)): rapid decrease of plasmatic glycaemia
